This data set deals with the molecule itself. Briefly: crystal structure.

The source of these data is PMC11761707 (Proceedings of the National Academy of Sciences of the …, 2025).

B1: Nmar_1354, multicopper oxidase (MCO4 lineage) from Nitrosopumilus maritimus (enzyme)
chain: DSSDTFPKFKNPNPQTLSYTLIAQDAEIEVSPGVRAKVWTYNGTVPAPTLRFSEGDDVTVKFVNDTPYAHTIHFHGTHDSANDGVFPMIMPGEEYTYHFVAEEAGLFMYHCHAFPTSEHVRMGMFGTMIIDPAIRPMDPAREYFFTLSEFDPNNALEHFTEFYPINGYAGQYMDNPIRVVSGELTRFYVVGIGGVLQSPFHVHSTIMKVYPSGILWNEPYYAQTHLIGNGDTAIIEATWTQPGMYLFHVHGIQEERGSMAMIEVLEDASSLSDVQRPSNNKGSYSMVEWQEDLIRTLEQPQLISYENLGESAAISSEKVSADKVSIVKDSWNPEITESYDPIAIQVDSGTTVTWTNDDSVVHTVTDNENSFDSGFIQAGNTWSYSFDNPGEFDYICTLHPWMKGTISVN
For B1, the stoichiometry N (as a rule, the number of molecules, sites or subunits per partner or assembly) stood at 3.
